Experimental data: PMC6080939 (The Journal of Cell Biology, 2018)
Read-outs that look alike come from different tables or passages of the source. Blank lines part the entries; values can stand above or below the molecule they belong to.

Experiments:
Assay in all cases: AFM single-cell force spectroscopy
[1] = biological target: integrin α4β7 (human (endogenous in RPMI 8866–CXCR3)) (UniProt P13612)
[2] = biological target: integrin α4β7 (human (endogenous in RPMI 8866–CXCR3)) (UniProt P13612); remark: listed apart in the source
[3] = biological target: integrin α4β7 (human (endogenous in RPMI 8866–CXCR3)) (UniProt P13612); remark: listed apart in the source
[4] = biological target: integrin α4β7 (human (endogenous in RPMI 8866–CXCR3)) (UniProt P13612); remark: listed apart in the source
[5] = biological target: integrin α4β7 (human (endogenous in RPMI 8866–CXCR3)) (UniProt P13612); remark: listed apart in the source
[6] = biological target: integrin α4β7 (human (endogenous in RPMI 8866–CXCR3)) (UniProt P13612); remark: listed apart in the source
[7] = biological target: T1, integrin α4β7 (human (endogenous in RPMI 8866–CXCR3), UniProt P13612 34-1032; P26010 20-798)
[8] = biological target: T1, integrin α4β7; remark: listed apart in the source
[9] = biological target: T1, integrin α4β7; remark: listed apart in the source

integrin α4β7 (human (endogenous in RPMI 8866–CXCR3)), sequence (P13612 34-1032, chain 1 of 2): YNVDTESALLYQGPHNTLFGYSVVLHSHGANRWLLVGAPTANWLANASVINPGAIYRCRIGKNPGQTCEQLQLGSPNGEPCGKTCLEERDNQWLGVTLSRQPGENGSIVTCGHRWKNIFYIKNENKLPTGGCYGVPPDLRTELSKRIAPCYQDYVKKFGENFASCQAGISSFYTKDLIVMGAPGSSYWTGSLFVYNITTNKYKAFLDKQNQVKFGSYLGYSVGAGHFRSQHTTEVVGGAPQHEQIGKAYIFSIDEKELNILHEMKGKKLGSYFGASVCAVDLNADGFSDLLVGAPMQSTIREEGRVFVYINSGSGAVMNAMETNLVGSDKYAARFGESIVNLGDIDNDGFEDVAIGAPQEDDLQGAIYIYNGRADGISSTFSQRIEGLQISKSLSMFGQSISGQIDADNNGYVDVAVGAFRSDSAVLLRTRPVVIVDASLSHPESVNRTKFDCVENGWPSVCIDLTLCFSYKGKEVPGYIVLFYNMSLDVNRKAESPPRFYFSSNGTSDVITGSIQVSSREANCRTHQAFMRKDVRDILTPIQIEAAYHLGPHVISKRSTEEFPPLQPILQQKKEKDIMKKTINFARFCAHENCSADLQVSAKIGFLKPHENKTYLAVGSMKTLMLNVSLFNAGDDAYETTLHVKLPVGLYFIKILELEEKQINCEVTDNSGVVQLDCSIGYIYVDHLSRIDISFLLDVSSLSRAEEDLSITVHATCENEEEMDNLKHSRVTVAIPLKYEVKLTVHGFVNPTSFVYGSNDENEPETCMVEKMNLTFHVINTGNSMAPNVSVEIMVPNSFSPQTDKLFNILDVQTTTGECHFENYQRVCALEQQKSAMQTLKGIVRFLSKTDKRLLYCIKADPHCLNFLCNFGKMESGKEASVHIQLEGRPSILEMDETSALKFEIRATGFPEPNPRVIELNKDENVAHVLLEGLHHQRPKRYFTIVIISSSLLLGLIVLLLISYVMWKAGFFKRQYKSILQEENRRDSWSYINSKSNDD
integrin α4β7 (human (endogenous in RPMI 8866–CXCR3)), sequence (P26010 20-798, chain 2 of 2, further chain): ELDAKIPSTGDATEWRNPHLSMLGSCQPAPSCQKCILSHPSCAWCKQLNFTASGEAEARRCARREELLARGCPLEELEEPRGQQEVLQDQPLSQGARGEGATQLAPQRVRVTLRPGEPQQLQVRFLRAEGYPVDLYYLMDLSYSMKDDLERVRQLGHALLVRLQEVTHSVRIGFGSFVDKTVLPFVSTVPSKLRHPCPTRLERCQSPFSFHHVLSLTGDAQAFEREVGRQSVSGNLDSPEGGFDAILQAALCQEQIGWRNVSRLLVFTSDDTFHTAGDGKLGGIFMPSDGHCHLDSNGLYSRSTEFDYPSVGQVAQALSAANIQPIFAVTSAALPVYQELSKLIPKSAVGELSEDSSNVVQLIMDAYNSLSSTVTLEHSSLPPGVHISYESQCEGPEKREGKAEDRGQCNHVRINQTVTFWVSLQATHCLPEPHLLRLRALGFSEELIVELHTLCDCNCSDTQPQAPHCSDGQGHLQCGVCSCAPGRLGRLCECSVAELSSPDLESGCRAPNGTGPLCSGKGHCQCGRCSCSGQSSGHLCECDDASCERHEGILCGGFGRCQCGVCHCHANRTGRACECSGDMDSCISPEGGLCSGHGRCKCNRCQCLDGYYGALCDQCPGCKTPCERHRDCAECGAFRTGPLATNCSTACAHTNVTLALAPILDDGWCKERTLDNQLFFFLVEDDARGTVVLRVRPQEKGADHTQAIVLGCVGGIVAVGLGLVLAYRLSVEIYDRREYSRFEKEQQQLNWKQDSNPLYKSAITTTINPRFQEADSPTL
T1 sequence (P13612 34-1032, chain 1 of 2): as the sequence (P13612 34-1032, chain 1 of 2) above
T1 sequence (P26010 20-798, chain 2 of 2): as the sequence (P26010 20-798, chain 2 of 2, further chain) above

single-bond unbinding force [1]: 32 pN | adhesion frequency [2]: 55% | koff [3]: 0.4 s⁻¹ | adhesion frequency [4]: 25% | koff [5]: 1.17 s⁻¹ | adhesion frequency [6]: 31% | koff [6]: 1.03 s⁻¹ | single-bond unbinding force [6]: 35 to 80 pN
Molecule: MAdCAM-1 (adsorbed on the surface for AFM single-cell force spectroscopy) (from UniProt Q13477 19-382) (ligand)

koff [7]: 1.75 s⁻¹ | koff [8]: 0.83 s⁻¹ | koff [9]: 1.58 s⁻¹
B1: VCAM-1 (adsorbed on the surface for AFM single-cell force spectroscopy) (ligand, human, UniProt P19320 25-698, looked up)
chain: FKIETTPESRYLAQIGDSVSLTCSTTGCESPFFSWRTQIDSPLNGKVTNEGTTSTLTMNPVSFGNEHSYLCTATCESRKLEKGIQVEIYSFPKDPEIHLSGPLEAGKPITVKCSVADVYPFDRLEIDLLKGDHLMKSQEFLEDADRKSLETKSLEVTFTPVIEDIGKVLVCRAKLHIDEMDSVPTVRQAVKELQVYISPKNTVISVNPSTKLQEGGSVTMTCSSEGLPAPEIFWSKKLDNGNLQHLSGNATLTLIAMRMEDSGIYVCEGVNLIGKNRKEVELIVQEKPFTVEISPGPRIAAQIGDSVMLTCSVMGCESPSFSWRTQIDSPLSGKVRSEGTNSTLTLSPVSFENEHSYLCTVTCGHKKLEKGIQVELYSFPRDPEIEMSGGLVNGSSVTVSCKVPSVYPLDRLEIELLKGETILENIEFLEDTDMKSLENKSLEMTFIPTIEDTGKALVCQAKLHIDDMEFEPKQRQSTQTLYVNVAPRDTTVLVSPSSILEEGSSVNMTCLSQGFPAPKILWSRQLPNGELQPLSENATLTLISTKMEDSGVYLCEGINQAGRSRKEVELIIQVTPKDIKLTAFPSESVKEGDTVIISCTCGNVPETWIILKKKAETGDTVLKSIDGAYTIRKAQLKDAGVYECESKNKVGSQLRSLTLDVQGRENNKDYFSPE
